Measurements from patent publication US20260183411A1, “TARGETING SORTILIN” (priority 2024, published 2026).
Bridges are numbered along the chain shown (N, C = ends). Where no end group is shown, it is not given here. Side-chain parts run from the residue outwards. [ ]: non-standard residue; d: D form. tBuAla = CC(C)(C)C[C@H](N)C(=O)O; Tle = CC(C)(C)[C@H](N)C(=O)O; linker = not defined here; Nle = CCCC[C@H](N)C(=O)O; siRNA = not defined here

Key:
[1] = CMC formulation buffer screen; type: physicochemical; conditions: 0.5 mg/mL
Experimental: Exemplary conjugate agents (e.g., sortilin binding agents), referred to in the present Example as “peptide drug conjugates” or “PDCs” were assessed in a formulation screen to determine an appropriate vehicle for in vivo studies and to assess precipitation risk. PDC solutions were made up to 0.5 mg/mL in the following buffers: 25 mM Histidine 10% sucrose pH 7, 50 mM acetate/acetic acid, 10% sucrose pH 5, 1×PBS pH 7.4, Saline, 50 mM HEPES 10% sucrose pH 7. Solubility was assessed using a shake flask method and the test compound concentration of the filtrate was confirmed using HPLC-UV.
The following buffers were screened: 25 mM Histidine 10% sucrose pH 7, 50 mM acetate/acetic acid, 10% sucrose pH 5, 1×PBS pH 7.4, Saline, 50 mM HEPES 10% sucrose pH 7. The PDCs were soluble in all buffers tested (Table 1), and we proceed to use 25 mM Histidine, 10% sucrose pH 7 as our buffer of choice for our in vivo studies.

[2] = biological target: T1, rat SORT1 (76-752)-His (rat, UniProt O54861 76-752); assay: SPR (Biacore 8K), SORT1 on CM5 chip, siRNA-peptide conjugate as analyte, 1:1 model
T1 construct: range 76-752; Amine-coupled to CM5 chip for SPR
T1 sequence (looked up): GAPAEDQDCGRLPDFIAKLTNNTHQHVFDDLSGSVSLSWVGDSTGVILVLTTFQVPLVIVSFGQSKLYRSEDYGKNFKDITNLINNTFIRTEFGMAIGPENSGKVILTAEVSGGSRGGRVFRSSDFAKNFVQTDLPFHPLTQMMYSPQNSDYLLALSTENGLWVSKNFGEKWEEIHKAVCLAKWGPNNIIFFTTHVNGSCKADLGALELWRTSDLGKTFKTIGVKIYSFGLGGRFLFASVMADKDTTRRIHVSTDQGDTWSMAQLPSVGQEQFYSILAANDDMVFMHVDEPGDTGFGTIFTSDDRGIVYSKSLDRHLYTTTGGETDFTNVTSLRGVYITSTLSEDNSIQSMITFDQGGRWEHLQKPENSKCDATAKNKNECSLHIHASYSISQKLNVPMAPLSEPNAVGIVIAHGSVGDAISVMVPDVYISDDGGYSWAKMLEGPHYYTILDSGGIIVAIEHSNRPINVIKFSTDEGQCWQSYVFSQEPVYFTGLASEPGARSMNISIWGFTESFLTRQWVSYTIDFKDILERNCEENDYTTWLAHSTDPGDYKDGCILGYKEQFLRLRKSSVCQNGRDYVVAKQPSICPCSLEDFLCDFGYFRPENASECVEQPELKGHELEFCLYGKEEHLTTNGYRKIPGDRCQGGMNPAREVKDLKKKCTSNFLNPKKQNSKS
Experimental: (§1) SPR analysis was performed on Series S CM5 chips (Cytiva) using a Biacore 8K instrument (Cytiva). Sensorgrams were double-referenced by subtracting the response on both a reference flow cell and a blank sample. Human SORT1 (78-755)-His (Acrobiosystems), human SORT1 (78-755)-His(GenScript), mouse SORT1 (76-753)-His (R&D Systems), rat SORT1 (76-752)-His (GenScript), and cyno SORT1 (76-753)-His (GenScript) were diluted to 20-60 μg/mL in 10 mM sodium acetate pH 4.5 buffer and immobilized onto Series S CM5 chips using amine coupling at a flow rate of 10 μL/min for 45-100 s.
(§2) Ten start-up cycles and a blank cycle preceded each analysis run. The runs were performed by sequential injections of analyte (0-20 nM, 3-fold serial dilutions) with a 90 s association and 900 s dissociation at a flow rate of 30 μL/min, followed by two regeneration cycles with 2 M MgCl2 for 90 s at a flow rate of 10 μL/min. […] Five start-up cycles and a blank cycle preceded each analysis run. The runs were performed by sequential injections of analyte (0-25 nM) with a 150 seconds (s) association and 300 s dissociation at a flow rate of 30 μL/min, followed by a regeneration with 2 M MgCl₂ for 200 s at a flow rate of 10 μL/min. The kinetic rate constants (kₐ and kd) and the equilibrium binding constant (Kd) were calculated using a 1:1 kinetic binding model on the Biacore Insight Evaluation Software (Cytiva).
(§3) SPR analysis was performed on Series S CM5 chips (Cytiva) using a Biacore 8K instrument (Cytiva). Sensorgrams were double-referenced by subtracting the response on both a reference flow cell and a blank sample. The SPR analysis was conducted using four different SORT1 species: Human SORT1, Mouse SORT1, Rat SORT1, and Cyno SORT1. The samples were prepared according to the general procedure described above herein. The kinetic rate constants (ka and […]) and the equilibrium binding constant (Kd) were calculated using a 1:1 kinetic binding model on the Biacore Insight Evaluation Software (Cytiva).

[3] = biological target: T2, Human SORT1 (78-755)-His (human, UniProt Q99523 78-755); assay: as above
T2 construct: range 78-755; Amine-coupled to CM5 chip for SPR; Two suppliers are named (Acrobiosystems, GenScript)
T2 sequence (looked up): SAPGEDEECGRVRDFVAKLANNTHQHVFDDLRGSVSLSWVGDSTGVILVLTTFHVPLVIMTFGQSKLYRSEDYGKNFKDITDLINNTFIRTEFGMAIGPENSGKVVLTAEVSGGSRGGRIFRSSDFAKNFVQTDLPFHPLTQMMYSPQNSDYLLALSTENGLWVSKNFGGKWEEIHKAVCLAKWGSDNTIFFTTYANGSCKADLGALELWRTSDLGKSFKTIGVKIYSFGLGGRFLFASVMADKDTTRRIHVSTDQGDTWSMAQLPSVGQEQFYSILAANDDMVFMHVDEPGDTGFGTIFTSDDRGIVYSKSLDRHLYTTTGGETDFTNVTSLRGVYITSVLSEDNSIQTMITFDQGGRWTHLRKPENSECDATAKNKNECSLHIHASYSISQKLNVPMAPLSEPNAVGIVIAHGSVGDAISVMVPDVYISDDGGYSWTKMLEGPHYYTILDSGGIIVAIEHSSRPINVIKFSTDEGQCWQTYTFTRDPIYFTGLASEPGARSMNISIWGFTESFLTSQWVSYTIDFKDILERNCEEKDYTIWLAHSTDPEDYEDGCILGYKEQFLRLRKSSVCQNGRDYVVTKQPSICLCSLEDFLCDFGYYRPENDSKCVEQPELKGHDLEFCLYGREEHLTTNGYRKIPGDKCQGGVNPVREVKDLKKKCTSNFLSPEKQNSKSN
Experimental: as §1, §2, §3

Molecule	result (buffer screening) ([1]; 25 mM Histidine 10% sucrose pH 7)	result (buffer screening) ([1]; 50 mM HEPES 10% sucrose pH 7)	result (buffer screening) ([1]; 50 mM acetate/acetic acid, 10% sucrose pH 5)	result (buffer screening) ([1]; 1x PBS pH 7.4)	result (buffer screening) ([1]; Saline)	Kd [2] [nM]	Kd [3] [nM]
CC[C@H](C)[C@@H]([C@@H](CC(=O)N1CCC[C@H]1[C@H](OC)[C@@H](C)C(=O)N[C@H](C)[C@@H](O)c1ccccc1)OC)N(C)C(=O)[C@@H](NC(=O)[C@H](C(C)C)N(C)C(=O)OCc1ccc(NC(=O)[C@H](CCCNC(N)=O)NC(=O)[C@@H](NC(=O)CCCC(=O)NCCC(=O)N(C)CC(=O)N(C)CC(=O)N(C)CC(=O)N(C)CC(=O)N[C@@H](C)C(=O)N2CCC[C@H]2C(=O)N[C@@H](CCCNC(=N)N)C(=O)N[C@@H](Cc2c[nH]c3ccccc23)C(=O)N[C@@H](CC(=O)O)C(=O)N[C@@H](C)C(=O)N2CCC[C@H]2C(=O)N[C@@H](CC(C)C)C(=O)N[C@@H](CCCNC(=N)N)C(=O)N[C@@H](CC(=O)O)C(=O)N2CCC[C@H]2C(=O)N[C@@H](C)C(=O)N[C@@H](CC(C)C)C(=O)N[C@@H](CCCNC(=N)N)C(=O)N[C@@H](CCC(N)=O)C(=O)N[C@@H](CC(C)C)C(=O)N[C@@H](CC(C)C)C(=O)O)C(C)C)cc1)C(C)C [PRGN_WT_PDC]	clear solution	clear solution	clear solution	clear solution	clear solution		
RWCENK([linker-siRNA])R[Nle]FTCRQ[Tle][tBuAla] (disulfide 3-11 (inferred); not fully specified; printed as RWCENKR(Nle)FTCRQ(B13)(F02); reading uncertain, also called SORT1 peptide 3 siRNA conjugate) [SORT1 peptide 3 conjugate]						253	108
